Molecular target: T1, recombinant ectodomain of human IFN-λ receptor 1 (hIFN-λR1) (human, UniProt Q8IU57 21-228)
T1 construct: for the receptor neither is said; also called IFNLR1; source: recombinant; plasmids transfected into Expi293-F cells; purification of the receptor not described
T1 sequence (looked up): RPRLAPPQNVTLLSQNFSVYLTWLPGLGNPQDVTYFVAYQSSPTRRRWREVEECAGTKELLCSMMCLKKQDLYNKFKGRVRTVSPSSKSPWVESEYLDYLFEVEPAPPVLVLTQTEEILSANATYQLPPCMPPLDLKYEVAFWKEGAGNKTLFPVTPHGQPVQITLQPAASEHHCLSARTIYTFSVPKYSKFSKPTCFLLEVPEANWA
Assay: SPR; Biacore T200; His-tagged hIFN-λ3-WT or hIFN-λ3-DE1 immobilised on a Series S NTA chip to about 200 RU; analyte hIFN-λR1 ectodomain at 6.25, 12.5 and 25 nM, 60 s at 10 µL/min, 120 s dissociation; 1X PBS-P+ with 50 nM EDTA; global fit to a 1:1 model
Settings: both partners purified

B1: wild-type human interferon-λ3 (hIFN-λ3-WT), His-tagged (ligand, UniProt Q8IZI9 22-196, looked up)
chain: VPVARLRGALPDARGCHIAQFKSLSPQELQAFKRAKDALEESLLLKDCKCRSRLFPRTWDLRQLQVRERPVALEAELALTLKVLEATADTDPALGDVLDQPLHTLHHILSQLRACIQPQPTAGPRTRGRLHHWLHRLQEAPKKESPGCLEASVTFNLFRLLTRDLNCVASGDLCV
notes: human IFN-λ3, full-length cDNA in a modified pcDNA3.1 with a TEV site and C-terminal 6xHis tag; also called wild-type hIFN-λ3; source: Expi293-F cells, transfected, from the culture supernatant, purified (Ni-NTA, SEC); not shown: His6, C-terminal, kept
binding result: binds

From article PMC12866752, “Computational Design and Glycoengineering of Interferon‐Lambda for Nasal Prophylaxis Against Respiratory Viruses” (Advanced Science, 2025)
